This is an account of results in article PMC6464244, “The fungal ribonuclease-like effector protein CSEP0064/BEC1054 represses plant immunity and interferes with degradation of host ribosomal RNA”.

Data set [1] deals with T1, CSEP0064/BEC1054 (Blumeria graminis, UniProt N1JJ94 22-118).
T1 sequence: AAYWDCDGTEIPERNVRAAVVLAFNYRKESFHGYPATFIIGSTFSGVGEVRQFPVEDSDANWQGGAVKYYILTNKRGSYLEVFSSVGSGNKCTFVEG
Put plainly: NMR 1H-15N HSQC titration; fast exchange; small CSPs, saturation at ~50 molar equivalents; binding observed. Particulars: protein: recombinant; tags: Trx-His6 removed by TEV; NT-647 NHS amine label for MST; 15N for NMR; hairpin (predicted same fold as SRL RNA).

Data set [2] addresses T1, CSEP0064/BEC1054. In words: MST; up to 1 mM; no curve could be fitted; MST: 20 mM Tris pH 7.4, 150 mM NaCl, 0.05% Tween, 50 nM labelled protein; NMR: 50 uM protein, 50 mM Tris, 150 mM NaCl, 308 K. The following applies: protein: recombinant; tags: Trx-His6 removed by TEV; NT-647 NHS amine label for MST; 15N for NMR; single strand.
Data set [3] addresses T1, CSEP0064/BEC1054. Put plainly: NMR 1H-15N HSQC titration; 8 mole equivalents; discrete CSPs, weak. The following applies: protein: recombinant; tags: Trx-His6 removed by TEV; NT-647 NHS amine label for MST; 15N for NMR; hairpin (SRL fold).

In the case of ACCTGCTCAGTACGAGAGGAACCGCAGGT (structured_DNA, DNA version of SRL RNA) [SRL DNA oligonucleotide], in the data set with CSEP0064/BEC1054 [1], the Kd is > 10 µM.

With AAUUUAAUACGACUCACUAUAGG (ssRNA) [bacteriophage T7 promoter RNA (non-rRNA control)], the binding result in the data set with CSEP0064/BEC1054 [2] is “no binding”.

ACCUGCUCAGUACGAGAGGAACCGCAGGU (structured_RNA) [SRL RNA (barley 28S rRNA sarcin-ricin loop)]: the binding result with CSEP0064/BEC1054 [3] was “binds”.

Broadly, the Kd is a measure of binding affinity in units of concentration.
